# Experimental data published in patent US20120244165A1 (published 2012).
# No end group written: not given here.
# B1: mACI-01-Ab7 C2 (antibody, mouse IgG2b, kappa, V domains shown)
# VH: EVQLVESGGGLVQPGGSLKLSCAASGFTFSSYGMSWVRQTPDKRLELVASINSNGGSTYYPDSVKGRFTISRDNAKNTLYLQMSSLKSEDTAMYYCASGDYWGQGSTLTVSS
# VL: DVVMTQTPLSLPVSLGDQASISCRSSQSLVYSNGDTYLHWYLQKPGQSPKLLIYKVSNRFSGVPDRFSGSGSGTDFTLKISRVEAEDLGVYFCSQSTHVPWTFGGGTKLEIKR
# notes: also called mC2; Mouse C2
# Key:
# [1] = biological target: T1, peptide 12-20 with alanine at aa 16 (A16) (also: biotinylated (position not given here)); assay: ELISA on biotinylated peptides on streptavidin plates
# T1 construct: Second library; the entry already carries the alanine
# T1 peptide: VHHQALVFF
# Procedure: (§1) Epitope mapping of the monoclonal antibody mACI-01-Ab7 C2 was performed by ELISA using three different peptide libraries. One library comprises a total of 33 biotinylated peptides covering the complete amino acid (aa) sequence of Aβ1-42 (produced by Mimotopes and purchased from ANAWA Trading SA), the second library contains biotinylated peptides using peptide 12 (aa12-20 of Aβ) from the first peptide library and substituting each amino acid in the sequence by an alanine (see table 41 below), and the third library contains biotinylated peptides 13, 14, or 15 (aa 13-21, 14-22 or 15-23 of Aβ) and substituting in each case the last amino acids to an alanine or to a glycine for aa 21 which is already an alanine (see table 5 below). A biotinylated complete Aβ1-42 peptide was used as positive control (Bachem). Epitope mapping was done according to the manufacturer's (Mimotopes) instructions. Briefly, Streptavidin coated plates (NUNC) were blocked with 0.1% BSA in PBS overnight at 4° C. After washing with PBS-0.05% Tween 20, plates were coated for 1 hour at RT with the different peptides from the library, diluted in 0.1% BSA, 0.1% Sodium Azide in PBS to a final concentration of 10 μM. After washing, plates were incubated for 1 hour at RT with the mACI-01-Ab7 C2 antibody or an isotype control mouse IgG2b antibody, diluted to 10 μg/ml in 2% BSA, 0.1% Sodium Azide in PBS. Plates were washed again and incubated with alkaline phosphatase conjugated goat anti mouse IgG for 1 h at RT. After final washing, plates were incubated with phosphatase substrate (pNPP) and read at 405 nm using an ELISA plate reader.
# (§2) It was shown that the monoclonal antibody mACI-01-Ab7 C2 bound specifically to peptides 12, 13, 14 and 15 of the first peptide library. […] A second library with alanine substitutions was used to determine the critical aa for binding to peptide 12-20 ([…]) (SEQ ID NO: 29).
# [2] = biological target: T2, peptide 12-20 with alanine at aa 17 (A17) (also: biotinylated (position not given here)); assay: as above
# T2 construct: Second library; the entry already carries the alanine
# T2 peptide: VHHQKAVFF
# Procedure: as §1, §2
# [3] = biological target: T3, peptide 12-20 with alanine at aa 19 (A19) (also: biotinylated, position not given here); assay: as above
# T3 construct: Second library; the entry already carries the alanine
# T3 peptide: VHHQKLVAF
# Procedure: as §1, §2
# [4] = biological target: T4, peptide 12-20 with alanine at aa 20 (A20) (also: biotinylated, position not given here); assay: as above
# T4 construct: Second library; the entry already carries the alanine
# T4 peptide: VHHQKLVFA
# Procedure: as §1, §2
# [5] = biological target: T5, Aβ1-42 fibers (UniProt P05067 672-713); assay: binding affinity ELISA on plates coated with amyloid, alkaline phosphatase anti-mouse IgG detection
# T5 construct: domain: Aβ1-42; Aggregated, fibrillar state of Aβ1-42 (incubated for days at 37 °C); number of peptide copies not defined; also called Amyloid 1-42 fibrils; fibrillar Aβ1-42
# T5 sequence (P05067 672-713 limits assumed): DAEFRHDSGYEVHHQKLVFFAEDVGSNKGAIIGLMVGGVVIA
# Procedure: (§3) In order to evaluate the specificity of mACI-01-Ab7 C2 to different stages of polymerized amyloid protein, monomeric and polymeric soluble amyloid, particularly, amyloid β (Aβ) protein, and fibrillic amyloid, an ELISA coated with these different stages of polymeric beta-amyloid was performed. Monomers were prepared according to a modified method published by⁷, polymeric soluble amyloid, particularly, amyloid β (Aβ) according to⁸, whereas fibers were performed by incubation of amyloid (Bachem, Switzerland) with a final concentration of 1 μg/μl in Tris/HC1 pH 7.4 at 37° C. for 5 days followed by a centrifugation step (10,000 rpm for 5 minutes). Then amyloid polymers were coated on an ELISA plates with a final concentration of […] and binding affinity ELISA by using an anti-mouse IgG monoclonal antibody (Jackson ImmunoResearch Laboratories, Inc.) labelled with alkaline phosphate was performed.
# [6] = biological target: T6, Aβ1-42 monomers (UniProt P05067 672-713); assay: as above
# T6 construct: domain: Aβ1-42; Unlabelled monomeric preparation (HFIP film, DMSO, PBS); also called Amyloid monomers; Aβ1-42 monomeric peptide
# T6 sequence (P05067 672-713 limits assumed): as above
# Procedure: as §3
# [7] = biological target: T7, Aβ1-42 oligomers (UniProt P05067 672-713); assay: as above
# T7 construct: domain: Aβ1-42; Soluble oligomeric preparation (SDS-induced); number of copies not defined; also called amyloid oligomers; polymeric soluble amyloid β (Aβ) protein
# T7 sequence (P05067 672-713 limits assumed): as above
# Procedure: as §3
binder,measurement,setting,value
B1,binding result,[1],no binding (tested: antibody at 10 µg/ml)
same,binding result,[2],no binding (tested: antibody at 10 µg/ml)
same,binding result,[3],no binding (tested: antibody at 10 µg/ml)
same,binding result,[4],no binding (tested: antibody at 10 µg/ml)
same,IC50,[5],5.27 nM
same,IC50,[6],8.3 nM
same,IC50,[7],2.53 nM
